Key:
GPIbα LBD (Homo sapiens) = GPIbα LBD (Homo sapiens) (UniProt P07359); conditions: cited from earlier work
purified VWF = target: T1, purified VWF (Homo sapiens, UniProt P04275); test: ELISA; VWF coated on plates (6 μg/mL in PBS); VHH81 detected with HRP-conjugated anti-VHH antibody; conditions: both partners purified
T1 construct: von Willebrand factor

plasma-derived VWF = target: T2, plasma-derived VWF (Homo sapiens, UniProt P04275); test: as above; conditions: both partners purified
T2 construct: von Willebrand factor from plasma (multimeric); In the flow-chamber functional row the VWF is that of human whole blood; also called plasma VWF; Humate-P; source: reconstituted in PBS from outdated lyophilized Humate-P (CSL-Behring)

Sequence of GPIbα LBD (Homo sapiens) (P07359 17-306): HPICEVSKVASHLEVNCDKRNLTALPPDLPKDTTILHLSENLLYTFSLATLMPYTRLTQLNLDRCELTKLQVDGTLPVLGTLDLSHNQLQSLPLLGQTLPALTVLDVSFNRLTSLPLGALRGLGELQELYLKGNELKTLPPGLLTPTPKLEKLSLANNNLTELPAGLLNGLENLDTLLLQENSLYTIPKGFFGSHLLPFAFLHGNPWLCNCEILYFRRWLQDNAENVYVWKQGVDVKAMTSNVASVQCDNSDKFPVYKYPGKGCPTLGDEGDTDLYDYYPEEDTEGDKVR

Row | Molecule | Kd (GPIbα LBD (Homo sapiens)) | Kd (purified VWF) | Kd (plasma-derived VWF)
1 | von Willebrand factor AIM-A1 1238-1471 (from UniProt P04275) | 32000 nM |  | 
2 | monomeric recombinant VHH81 (construct not stated for this experiment) (VHH, also called PMP12A2h1; source: produced in bacteria) VHH: EVQLVESGGGLVQPGGSLRLSCAASGRTFSYNPMGWFRQAPGKGRELVAAISRTGGSTYYPDSVEGRFTISRDNAKRMVYLQMNSLRAEDTAVYYCAAAGVRAEDGRVRTLPSEYTFWGQGTQVTVSS |  | ~20 nM | ~20 nM
